Results reported in article PMC3140584, “Structure–function relationships of the competence lipoprotein ComL and SSB in meningococcal transformation”.

B1: HH10 ssDNA without DUS (ssDNA)
DNA: AACAACAACAAAAGGCCTGTCATCCAACTTCCGGACAGTAAACAACAACAAC
B2: HH10/HH11 dsDNA without DUS (dsDNA)
DNA 1: B1 DNA
DNA 2: GTTGTTGTTGTTTACTGTCCGGAAGTTGGATGACAGGCCTTTTGTTGTTGTT

Target: T1, ComL (Neisseria meningitidis MC58, UniProt Q9K0B1 17-267)
T1 sequence: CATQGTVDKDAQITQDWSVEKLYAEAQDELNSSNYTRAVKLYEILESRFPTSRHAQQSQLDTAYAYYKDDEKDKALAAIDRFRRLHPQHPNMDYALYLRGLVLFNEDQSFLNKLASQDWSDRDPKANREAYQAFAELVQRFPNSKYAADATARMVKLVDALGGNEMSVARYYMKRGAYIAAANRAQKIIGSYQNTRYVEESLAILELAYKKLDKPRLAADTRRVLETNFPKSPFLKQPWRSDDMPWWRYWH
Assay: EMSA; 5 mM Mg2+; EMSA: 4.5 fmol DNA in 10 µl; 10% glycerol, 5 mM MgCl2, 0.02 mg/ml BSA, 1 mM DTT, with half volume of protein in 50 mM NaH2PO4, 300 mM NaCl, pH 8.0, 0.1% DDM (final about 25 mM phosphate, 150 mM NaCl, 0.05% DDM); 37 °C, 15 min; 6% PAGE Tris/glycine/EDTA
Details: protein: recombinant, tags: C-terminal 6xHis, label: 5'-32P

| Binder | apparent K (half saturation) | apparent K (half saturation) (blunt) |
| --- | --- | --- |
| B1 | 926 nM |  |
| B2 |  | 467 nM |
